Laboratory results from paper PMC4289141 (Journal of the American Chemical Society, 2013).

Molecular target: the molecule itself
Test: cross-linking

B1: ^A74/C81/C96RIDC1 (natural protein)
chain: not shown
modifications: heme covalently (c-type) linked to the protein backbone; in the tetramer disulfide bonds between monomers
stoichiometry N: 4
